Assay results: publication PMC5951399
pKd: −log10 of the molar value.

Molecular target: frataxin, mature form (FXN^81–210) (human) (UniProt Q16595)
Test: ITC

frataxin, mature form (FXN^81–210) (human), sequence (Q16595 81-210): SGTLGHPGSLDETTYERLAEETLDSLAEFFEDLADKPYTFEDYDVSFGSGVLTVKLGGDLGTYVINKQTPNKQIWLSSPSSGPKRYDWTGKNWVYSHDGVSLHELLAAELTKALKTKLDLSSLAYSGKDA
[NFS1]2:[ISD11]2:[Acp]2:[ISCU]2 complex, sequence (Q9H1K1 whole entry, looked up): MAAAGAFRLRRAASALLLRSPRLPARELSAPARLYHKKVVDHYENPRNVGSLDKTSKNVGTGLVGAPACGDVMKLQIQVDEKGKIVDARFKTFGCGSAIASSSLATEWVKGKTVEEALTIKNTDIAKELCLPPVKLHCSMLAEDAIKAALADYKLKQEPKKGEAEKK
[NFS1]2:[ISD11]2:[Acp]2:[ISCU]2 complex, sequence (P0A6A8 whole entry, looked up): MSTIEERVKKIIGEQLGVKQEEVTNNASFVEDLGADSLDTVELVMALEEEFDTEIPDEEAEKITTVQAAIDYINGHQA
[NFS1]2:[ISD11]2:[Acp]2:[ISCU]2 complex, sequence (Q9HD34 whole entry, looked up): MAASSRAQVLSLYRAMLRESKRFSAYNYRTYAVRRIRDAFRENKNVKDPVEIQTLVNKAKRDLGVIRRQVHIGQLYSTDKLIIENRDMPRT
cysteine desulfurase complex [NFS1]2:[ISD11]2:[Acp]2, sequence (P0A6A8 whole entry, looked up): as the sequence (P0A6A8 whole entry, looked up) above
cysteine desulfurase complex [NFS1]2:[ISD11]2:[Acp]2, sequence (Q9HD34 whole entry, looked up): as the sequence (Q9HD34 whole entry, looked up) above

In the case of “[NFS1]2:[ISD11]2:[Acp]2:[ISCU]2 complex (from UniProt Q9HD34 1-91; P0A6A8 1-78; Q9H1K1-1 35-167)”, the pKd was 5.52.

“cysteine desulfurase complex [NFS1]2:[ISD11]2:[Acp]2 (from UniProt Q9HD34 1-91; P0A6A8 1-78)” gave a pKd of 4.58.
